In patent US20030229006A1, “Amphiphilic oligomers” (priority 1993, published 2003):

Columns and labels:
[1] = Closed loop assay, serum insulin by ELISA; assay type: in vivo, Sprague-Dawley rats; settings: 10 and 30 milligrams of insulin per kilogram
Description: FIG. 3 is a graph of ELISA assay results for native insulin in the NRS pool of various Sprague-Dawley rats, showing insulin concentration as a function of time, prior to and after dosing with insulin, at respective doses of 10 milligrams of insulin per kilogram of body weight, and at 30 milligrams of insulin per kilogram of body weight. Two rats were dosed at 10 milligrams insulin per kilogram of body weight (Rats C and I) and two rats were dosed at 30 milligrams insulin per kilogram of body weight (Rats K and L).
FIG. 4 is a graph of ELISA assay results for insulin in the NRS pool of various Sprague-Dawley rats, showing insulin concentration as a function of time, prior to and after dosing with insulin, at respective doses of 10 milligrams of insulin per kilogram of body weight, and at 30 milligrams of insulin per kilogram of body weight, wherein the insulin is administered as a conjugate, insulin-hexyl-PEG7-OMe.

pancreatomized dogs = test: Blood glucose after oral microemulsion insulin formulation; assay type: in vivo; settings: 1.0 mg/kg orally, emulsion formulation (native Zinc insulin or Hex-insulin mixture)
Description: (§1) FIG. 6 is a graph of insulin and blood glucose levels as a function of time, after dosing of canine subjects with a microemulsion insulin formulation representative of the present invention. The respective curves shown in the graph include native Zinc insulin; glucose ( ), hex-insulin; glucose (▪); native Zinc insulin; insulin (Δ); and hex-insulin; insulin (Δ).
(§2) Glucose data were normalized to the baseline glucose levels (0 minutes). Dogs were dosed orally with one of two emulsion formulations (native Zinc insulin or Hex-insulin mixture). The dose was adjusted to 1.0 mg/kg. Samples were collected at 30 minute intervals. The data were corrected for Hex-insulin reactivity in the BMI ELISA and Pharmacia RIA tests.

[2] = Serum insulin after oral microemulsion insulin formulation; assay type: in vivo, dogs; settings: 1.0 mg/kg orally
Description: as §1, §2

albino mice = test: Blood glucose after oral glucose challenge in fasted mice (Example IV); assay type: in vivo
Description: Comparative studies using bovine insulin were conducted on polymer-insulin conjugates and on native insulin to determine their relative stability and activity in animal models. In the animal studies, the efficacy of the polymer-insulin in lowering the blood level was compared to that of native insulin. Female and male albino mice averaging 25 g in weight were fasted overnight and used in groups of five for each treatment conducted in several phases over a period of two days. […] Conjugate 1) Group 3, 100 μg/kg, orally); or Conjugate 1 (Group 4, 100 μg/kg, subcutaneously) at time 0. […] Animals were fasted overnight before treatment and for the duration of the study. All test materials were prepared in phosphate buffered saline, pH 7.4. […] At the scheduled sample time blood was collected from the tail vein and immediately analyzed for glucose content using a One Touch Digital Glucose Meter (Life Scan).

Pepsin (Gastric) = settings: pH 1.3
Pancreatin = settings: pH 7.5
[3] = pH 1.3
Chymotrypsin = settings: pH 6

Substance | Insulin concentration over the timecourse [1] | Glucose return to baseline by (pancreatomized dogs) [min] | Time of maximal glucose depression (pancreatomized dogs) [min] | Time of peak insulin immunoreactivity in the serum after dosing ([2]; emulsion formulation (native Zinc insulin or Hex-insulin mixture)) [min] | Serum insulin return to baseline ([2]; emulsion formulation, in all cases) [min] | Duration of hypoglycemic effect (albino mice; 100 μg/kg subcutaneously) [h] | Blood glucose levels (albino mice; 100 μg/kg subcutaneously, 30 minute time point, control = Group 5, untreated) | Blood glucose levels lowered to a maximum of (albino mice; 1.5 mg/kg orally by gavage) | Time of maximum response after treatment (albino mice; 1.5 mg/kg orally by gavage) [min] | Glucose levels after four hours (albino mice; Group 2, 1.5 mg/kg orally) | Stability, Pepsin (Gastric) 1.5 units/mL (Pepsin (Gastric)) [min] | Stability, Pancreatin 6 units/mL (Pancreatin) [min] | Stability, Acid [3] [h] | Stability, Chymotrypsin (Chymotrypsin) [min]
native insulin: unconjugated insulin comparator: bovine insulin in Example IV, native Zinc insulin emulsion in Example XIX | flat throughout the timecourse | 360 to 480 | 9 to 180 | ≤ 30 | 120 to 240 | 3.5 | approximately 30 % of control | 60 % of control | 30 | remained above control | – | – | – | –
Insulin (Na): native (bovine) insulin, sodium form, comparator in stability studies | – | – | – | – | – | – | – | – | – | – | 9 | 77 | 153 | 13
